Measured values as given in article PMC6957217.

Target: Three of the mutant needles, I933A, N937A, and G938A
Assay: ELISA; gp37 trimers coated (100 ng/well) overnight at 4°C, casein block, OmpC added (various molar ratios; gp37:OmpC 1:1 for the mutants), 37°C 2 hr, PBS-T washes, bound OmpC detected with mouse anti-OmpC sera and HRP anti-mouse IgG

B1: recombinant OmpC trimer (outer membrane protein C) (natural protein)
chain: AEVYNKDGNKLDLYGKVDGLHYFSDNKDVDGDQTYMRLGFKGETQVTDQLTGYGQWEYQIQGNSAENENNSWTRVAFAGLKFQDVGSFDYGRNYGVVYDVTSWTDVLPEFGGDTYGSDNFMQQRGNGFATYRNTDFFGLVDGLNFAVQYQGKNGNPSGEGFTSGVTNNGRDALRQNGDGVGGSITYDYEGFGIGGAISSSKRTDAQNTAAYIGNGDRAETYTGGLKYDANNIYLAAQYTQTYNATRVGSLGWANKAQNFEAVAQYQFDFGLRPSLAYLQSKGKNLGRGYDDEDILKYVDVGATYYFNKNMSTYVDYKINLLDDNQFTRDAGINTDNIVALGLVYQF
Work on B1 yielded a fold binding against the WT needle of 2 to 3 fold.
